The values that follow come from publication doi:10.1101/2020.05.05.080093.

Common to all, as to assay: ITC
For orientation: Isothermal titration calorimetry measures the heat released or taken up as one component is titrated into another.

For assay [1], the target named is Heimdall_LC_3 TF-Vps4-MIT (Microtubule Interacting and Transport domain of Vps4 of Heimdallarchaeota_LC_3) (Heimdallarchaeota_LC_3).
Assay [2] addresses Loki_GC14_75 TF-Vps4-MIT (Microtubule Interacting and Transport domain of Vps4 of Lokiarchaeum_GC14_75) (Lokiarchaeum_GC14_75).
Assay [3] has as its target Odin_LCB_4 TF-Vps4-MIT (Microtubule Interacting and Transport domain of Vps4 of Odinarchaeota_LCB_4) (Odinarchaeota_LCB_4).

In assay [1], “Heimdall_LC_3 TF-Vps2/24/46 (natural protein)” came in with a dH1 (Sequential Binding Sites, first site) of -473 kcal/mol and a dH2 (Sequential Binding Sites, second site) of 931 kcal/mol.
In assay [1], “Heimdall_LC_3 TF-Vps20/32/60 (natural protein)” gave a dH1 (Sequential Binding Sites, first site) of 2780 kcal/mol and a dH2 (Sequential Binding Sites, second site) of -2310 kcal/mol.
For the substance “Loki_GC14_75 TF-Vps2/24/46 (natural protein)”, in assay [2], the dH1 (Sequential Binding Sites, first site) was -121 kcal/mol and the dH2 (Sequential Binding Sites, second site) stood at 422 kcal/mol.
Consider “Loki_GC14_75 TF-Vps20/32/60 (natural protein)”, for which, in assay [2], the dH is 1420 kcal/mol.
As to “Odin_LCB_4 TF-Vps20/32/60 (natural protein)”, in assay [3], the dH was determined as 331 kcal/mol.
In assay [3], Odin_LCB_4 Vps2/24/46 (natural protein) yielded a dH of 392 kcal/mol.
